The source of these data is article PMC10907630, “Phosphorylation regulates tau’s phase separation behavior and interactions with chromatin”.

For data set [1], the target named is T1, tau 1N4R (UniProt P10636-7 1-412). The data set is described as follows: EMSA; 10 mM NaCl; Hill fit; EMSA: 20 nM DNA or nucleosome, 20 mM HEPES pH 7.2, 10 mM NaCl (or 150), 0.5 mM TCEP, 0.1% Tween-20, 5% sucrose, room temperature 20 min; FA: 10 nM DNA, same buffer with 10 mM NaCl, 0.01% NP-40 substitute, room temperature 10 min. The conditions noted are these: protein: recombinant; tags: none stated; label: 5' 6-FAM on strand 1; blunt. On the technique in general: Mobility shift assays separate free from complexed probe on a gel.

The target in data set [2] is T1, tau 1N4R. The data set is described as follows: fluorescence anisotropy; 10 mM NaCl; Hill fit; EMSA: 20 nM DNA or nucleosome, 20 mM HEPES pH 7.2, 10 mM NaCl (or 150), 0.5 mM TCEP, 0.1% Tween-20, 5% sucrose, room temperature 20 min; FA: 10 nM DNA, same buffer with 10 mM NaCl, 0.01% NP-40 substitute, room temperature 10 min. The note with it: protein: recombinant; tags: none stated; label: 5' 6-FAM on strand 1; blunt. On the technique in general: In fluorescence polarisation assays a small probe gives low polarisation when free and higher when bound to something large.

T1 sequence (P10636 other isoform, or with tags, fused parts or gaps): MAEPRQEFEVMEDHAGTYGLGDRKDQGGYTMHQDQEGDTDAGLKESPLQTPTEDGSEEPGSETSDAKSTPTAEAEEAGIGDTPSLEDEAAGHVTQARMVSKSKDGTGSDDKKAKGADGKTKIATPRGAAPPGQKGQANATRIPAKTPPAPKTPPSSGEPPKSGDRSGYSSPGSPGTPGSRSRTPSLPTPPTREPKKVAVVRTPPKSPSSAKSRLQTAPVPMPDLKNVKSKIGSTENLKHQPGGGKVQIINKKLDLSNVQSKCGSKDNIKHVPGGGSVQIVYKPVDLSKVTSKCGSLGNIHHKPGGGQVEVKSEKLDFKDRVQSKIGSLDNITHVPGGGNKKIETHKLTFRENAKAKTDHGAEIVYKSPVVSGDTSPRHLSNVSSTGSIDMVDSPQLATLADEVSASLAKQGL

B1: 22 bp DNA (dsDNA)
DNA 1: ATTTAGAAATGTCCACTGTAGG
DNA 2: CCTACAGTGGACATTTCTAAAT
Broadly, the Kd is the free concentration of one partner at which half of the binding sites on the other are occupied at equilibrium, for simple one-to-one binding. For B1, the results for the Kd in data set [1] and in data set [2] were 112 ± 3.7 nM and 6.3 ± 0.5 nM, respectively.
